{"source": "patent US20200216536A1", "binders": {"B1": {"name": "wild-type canine IgG.B Fc (CH2 and CH3 domains) with SASA tag (Fc fusion, not shown: small tags and cut ends)", "chain": "APEMLGGPSVFIFPPKPKDTLLIARTPEVTCVVVDLDPEDPEVQISWFVDGKQMQTAKTQPREEQFNGTYRVVSVLPIGHQDWLKGKQFTCKVNNKALPSPIERTISKARGQAHQPSVYVLPPSREELSKNTVSLTCLIKDFFPPDIDVEWQSNGQQEPESKYRTTPPQLDEDGSYFLYSKLSVDKSRWQRGDTFICAVMHEALHNHYTQESLSHSPGK"}}, "key": {"canine FcRn [1]": {"biological_target": "T1, canine FcRn (UniProtKB-E2ROL6 [FcRn] and UniProtKB-E2RN10 [canine beta-2-microglobulin]) (canine)", "test": "SPR Biacore 8K, pH 5.5, Fc captured on BSA via SASA tag, FcRn 200 nM"}, "canine FcRn [2]": {"biological_target": "T1, canine FcRn", "test": "SPR Biacore 8K, pH 5.5, Fc captured on BSA via SASA tag, FcRn 200 nM", "remark": "listed apart in the source"}, "canine FcRn [3]": {"biological_target": "T1, canine FcRn", "test": "SPR Biacore 8K, pH 5.5, Fc captured on BSA via SASA tag, FcRn 100-800 nM"}, "canine FcRn [4]": {"biological_target": "T1, canine FcRn", "test": "SPR Biacore 8K, pH 5.5, Fc captured on BSA via SASA tag, FcRn 200 nM", "remark": "listed apart in the source"}, "canine FcRn [5]": {"biological_target": "T1, canine FcRn", "test": "SPR Biacore 8K, pH 5.5, Fc captured on BSA via SASA tag, FcRn 200 nM", "remark": "listed apart in the source"}, "canine FcRn [6]": {"biological_target": "T1, canine FcRn", "test": "SPR Biacore 8K, pH 5.5, Fc captured on BSA via SASA tag, FcRn 200 nM", "remark": "listed apart in the source"}, "canine FcRn [7]": {"biological_target": "T1, canine FcRn", "test": "SPR Biacore 8K, pH 5.5, Fc captured on BSA via SASA tag, FcRn 200 nM", "remark": "listed apart in the source"}, "canine FcRn [8]": {"biological_target": "T1, canine FcRn", "test": "SPR Biacore 8K, pH 5.5, Fc captured on BSA via SASA tag, FcRn 200 nM", "remark": "listed apart in the source"}, "canine FcRn [9]": {"biological_target": "T1, canine FcRn", "test": "SPR Biacore 8K, pH 5.5, Fc captured on BSA via SASA tag, FcRn 400 nM; average of the 12 wild-type runs"}, "canine FcRn [10]": {"biological_target": "T1, canine FcRn", "test": "SPR Biacore 8K, pH 5.5, Fc captured on BSA via SASA tag, FcRn 200 nM", "remark": "listed apart in the source"}}, "note": "Values joined by “and” are separate entries in the source; they are usually repeats but may differ in a detail not shown here. Identical values can stand only once.", "data": [{"binder": "B1", "values": [{"measurement": "Kd", "setting": "canine FcRn [1]", "value": "1.56 µM and 0.754 µM"}, {"measurement": "koff", "setting": "canine FcRn [1]", "value": "0.179 s⁻¹ and 0.182 s⁻¹"}, {"measurement": "kon", "setting": "canine FcRn [1]", "value": "115000 M⁻¹ s⁻¹ and 242000 M⁻¹ s⁻¹"}, {"measurement": "Kd", "setting": "canine FcRn [2]", "value": "0.955 µM and 1.31 µM"}, {"measurement": "koff", "setting": "canine FcRn [2]", "value": "0.181 s⁻¹ and 0.209 s⁻¹"}, {"measurement": "kon", "setting": "canine FcRn [2]", "value": "190000 M⁻¹ s⁻¹ and 159000 M⁻¹ s⁻¹"}, {"measurement": "Kd", "setting": "canine FcRn [3]", "value": 3.15, "unit": "µM"}, {"measurement": "koff", "setting": "canine FcRn [3]", "value": 0.527, "unit": "s⁻¹"}, {"measurement": "kon", "setting": "canine FcRn [3]", "value": 168000, "unit": "M⁻¹ s⁻¹"}, {"measurement": "Kd", "setting": "canine FcRn [4]", "value": "1.71 µM and 2.66 µM"}, {"measurement": "koff", "setting": "canine FcRn [4]", "value": "0.288 s⁻¹ and 0.326 s⁻¹"}, {"measurement": "kon", "setting": "canine FcRn [4]", "value": "168000 M⁻¹ s⁻¹ and 123000 M⁻¹ s⁻¹"}, {"measurement": "Kd", "setting": "canine FcRn [5]", "value": "8.99 µM and 3.11 µM"}, {"measurement": "koff", "setting": "canine FcRn [5]", "value": "0.347 s⁻¹ and 0.354 s⁻¹"}, {"measurement": "kon", "setting": "canine FcRn [5]", "value": "38700 M⁻¹ s⁻¹ and 114000 M⁻¹ s⁻¹"}, {"measurement": "Kd", "setting": "canine FcRn [6]", "value": "0.502 µM and 0.784 µM"}, {"measurement": "koff", "setting": "canine FcRn [6]", "value": "0.169 s⁻¹ and 0.207 s⁻¹"}, {"measurement": "kon", "setting": "canine FcRn [6]", "value": "336000 M⁻¹ s⁻¹ and 264000 M⁻¹ s⁻¹"}, {"measurement": "Kd", "setting": "canine FcRn [7]", "value": "0.884 µM and 0.862 µM"}, {"measurement": "koff", "setting": "canine FcRn [7]", "value": "0.21 s⁻¹ and 0.218 s⁻¹"}, {"measurement": "kon", "setting": "canine FcRn [7]", "value": "237000 M⁻¹ s⁻¹ and 253000 M⁻¹ s⁻¹"}, {"measurement": "Kd", "setting": "canine FcRn [8]", "value": "2.05 µM and 2.99 µM"}, {"measurement": "koff", "setting": "canine FcRn [8]", "value": "0.31 s⁻¹ and 0.315 s⁻¹"}, {"measurement": "kon", "setting": "canine FcRn [8]", "value": "151000 M⁻¹ s⁻¹ and 105000 M⁻¹ s⁻¹"}, {"measurement": "Kd", "setting": "canine FcRn [9]", "value": 0.566, "unit": "µM"}, {"measurement": "Kd", "setting": "canine FcRn [10]", "value": "0.639 µM and 0.692 µM"}, {"measurement": "koff", "setting": "canine FcRn [10]", "value": "0.17 s⁻¹ and 0.171 s⁻¹"}, {"measurement": "kon", "setting": "canine FcRn [10]", "value": "267000 M⁻¹ s⁻¹ and 247000 M⁻¹ s⁻¹"}]}]}
